Non-standard residues stand in square brackets, D forms with d. No end group written: not given here. Tyr(3-I) = N[C@@H](Cc1ccc(O)c(I)c1)C(=O)O
What was measured:
[1] = biological target: T1, Insulin receptor prepared according to Bass et al., 1996: soluble human insulin receptor-immunoglobulin heavy … (human, UniProt P06213 28-956); test: phage ELISA, vs IGF-1R
T1 construct: extracellular domain; Eu3+-labelled in TR-FRET; also called IR; sIR-Fc; not shown: immunoglobulin heavy chain constant domains that replace the transmembrane and i

[2] = biological target: T2, Soluble IGF-1R (R&D Systems, Cat. # 391-GR/CF); recombinant human IGF-1R (human, UniProt P08069 31-935); test: phage ELISA vs milk
T2 construct: extracellular domain; Eu3+-labelled in the TR-FRET assays; also called sIGF-1R; rhIGF-1R

[3] = biological target: T1, Insulin receptor prepared according to …; test: phage ELISA vs milk
[4] = biological target: T2, Soluble IGF-1R (R&D Systems, Cat. # …); test: phage ELISA, vs IR
[5] = biological target: human insulin receptor (HIR) (human, UniProt P06213 28-1382, limits assumed); test: 125I-insulin competition, solubilised HIR

| Binder | IR/IGF-1R Comparison [1] [ratio] | Ratio over Background [2] [fold] | Ratio over Background [3] [fold] | IGF-1R/IR Comparison [4] [ratio] | Kd [5] [nM] |
| --- | --- | --- | --- | --- | --- |
| AVRATRFDEAFYDWFVRQISDGQGNK [H2CA-4-86-GFR] | 0.2 | 7.3 | 1.1 | 6.4 |  |
| VNQSGSIHENFYDWFERQVSHQRGVR [H2CA-4-F1O-IGFR] | 0.2 | 5.7 | 1 | 5.9 |  |
| APDPSDFQEIFYDWFVRQVSRMPGGG [H2CA-1-A3-IGFR] | 0.2 | 3.8 | 0.8 | 5.1 |  |
| SSCDGAGHESFYEWFVRQVSGCRSV (not fully specified (bridges); cysteine pairing not given here) [H2CA-3-C8-IGFR] | 0.2 | 5.6 | 1.2 | 4.8 |  |
| RAGSSDFHEDFYEWFVRQVSLSLKGK [H2CA-2-B9-IGFR] | 0.2 | 7 | 1.7 | 4.2 |  |
| QAVQPGFHEEFYDWFVRQVSTGVGGG [H2CA-4-H4-IGFR] | 0.2 | 4.1 | 1 | 4.2 |  |
| GFREGNFYEWFQAQVT [E4Da-4-H2-IR] | 0.2 | 33.9 | 8.2 | 4.1 |  |
| SSIGGGFHENFYDWFSRQLSQSPPLK [N2CA-4-F7-IGFR] | 0.2 | 3.2 | 0.8 | 4.1 |  |
| QSPVGSSHEDFYDWFFRQVAQSGAHQ [N2CA-3-D6-IGFR] | 0.3 | 9 | 2.2 | 4 |  |
| NYRRQVFNGNFYDWFDRQVFSLVTPG [142CA-3-D8-IGFR] | 0.3 | 7.2 | 1.8 | 4 |  |
| TLDGGSFEEQFYDWFVRQLSYRTNPD [H2CA-4-G11-IGFR] | 0.3 | 9.5 | 2.5 | 3.9 |  |
| FYVQQWGHENFYDWFDRQVSQSGGAG [H2CA-4-F1-IGFR] | 0.3 | 3.5 | 0.9 | 3.8 |  |
| LRRQAPVEENFYDWFVRQVSGDRVGG [H2CA-3-D7-IGFR] | 0.3 | 3 | 0.8 | 3.7 |  |
| RCGRELYHSTFYDWFDRQVAGRTCPS [H2CA-1-A7-IGFR] | 0.3 | 2.2 | 0.6 | 3.7 |  |
| CCLLCRFQQNFYDWFVCQGISRLRPL (disulfide (positions not given here); also: disulfide among the four cysteines, pairing not given here) [X2CA-2-B4-IGFR] | 0.3 | 4.1 | 1.1 | 3.6 |  |
| PPLASDLDVQFYGWFVQQVSPPGRGG [H2CA-2-B3-IGFR] | 0.3 | 3.8 | 1 | 3.6 |  |
| GAPVDQLHEDFYDWFVRQVSQAATG [E2CA-2-B2-IGFR] | 0.3 | 3.4 | 1 | 3.5 |  |
| SLEEEWAQIQCEVWGR[dN][dC]SESFYDWFERQL (cysteine pairing not given here) [S563] |  |  |  |  | 0.014 |
| SLEEEWAQIECEVWGRGCSGSLDESFYDWFERQL [S561] |  |  |  |  | 0.015 |
| SIEEEWAQIKCDVWGRCSESFYDWFERQL [S562] |  |  |  |  | 0.018 |
| Ac-SIEEEWAQIKCDVWGRGSESFYDWFERQL [S600] |  |  |  |  | 0.0076 |
| SLEEEWAQIQCEVWGRCSESFYDWFERQL [S564] |  |  |  |  | 0.013 |
| Ac-SIEEEWAQIKCDVWGRGPSESFYDWFERQLG [S568] |  |  |  |  | 0.0043 |

| Binder | IR/IGF-1R Comparison [1] [ratio] | Ratio over Background [2] [fold] | Ratio over Background [3] [fold] | IGF-1R/IR Comparison [4] [ratio] | Kd [5] [nM] |
| --- | --- | --- | --- | --- | --- |
| SLEEEWAQIEEVWGRGPSESFYDWFERQLG (label printed as 3569; also called 3569) [S569] |  |  |  |  | 0.15 |
| SLEEEWAQIEEVWGRPSESFYDWFERQLG [S570] |  |  |  |  | 0.73 |
| SLEEEWAQIEEVWGRGSESFYDWFERQLG [S571] |  |  |  |  | 1.6 |
| SLEEEWAQIEEVWGRSESFYDWFERQLG [S572] |  |  |  |  | 4.8 |
| SLEEEWAQIESEVWGRSESFYDWFERQLG [S573] |  |  |  |  | 0.036 |
| SLEEEWAQVECEVYGRGCXESFYDWFERQLG (not fully specified; X19 = βturn (unit not explained)) [S580] |  |  |  |  | 0.012 |
| SLEEEWAQIESEVWGRXESFYDWFERQLG (X17 = βturn (unit not explained)) [S581] |  |  |  |  | 0.012 |
| SLEEEWAQIECEVWGRGCPKGFYGWFRRRG [S582] |  |  |  |  | 2.5 |
| SLEEEWAQIECEVWGRGCPKGFYGWFRRRRG [S584] |  |  |  |  | 9.3 |
| LEEEWAQIECEV[Tyr(3-I)]GRGCSGSLDESFYDWFERQLG (cysteine pairing not given here) [S590] |  |  |  |  | 0.058 |
| LEEEWAQVECEV[Tyr(3-I)]GRGCSGSLDESFYDWFERQLG (cysteine pairing not given here) [S588] |  |  |  |  | 0.18 |
| LEEEWAQIECEVWGRGCSGSLDESF[Tyr(3-I)]DWFERQLG (not fully specified (bridges); printed as LEEEWAQIECEVWGRGCSGSLDESF-IodoTyr-DWFERQLG; cysteine pairing not given here) [S591] |  |  |  |  | 0.13 |
| SLEEEWAQIECEVWGRGCPSY [S592] |  |  |  |  | 1.7 |
| SIEEEWAQIKCDVWGRGCPSY [S593] |  |  |  |  | 0.022 |
| SLEEEWAQIECEVWGRCWHHSFYDWFERQL [S594] |  |  |  |  | 0.071 |
| LEEEWAQIQREVWHS[dP]ASESF[dY]D[dW]FERQL [S595] |  |  |  |  | 0.62 |
| SLEEEWAQIQHELYGPAESESFYD[dW]FERQL [S596] |  |  |  |  | 0.045 |
| SLEEEWAQIECEVYGRGCPSESFYDWFERQL (not fully specified; N-terminal acetyl) [S597] |  |  |  |  | 0.0085 |
| SLEEEWAQIQEDLYGANHNESFYDWFERQL [S601] |  |  |  |  | 0.18 |
| SLEEEWAQIQAEVYGNPNSESFYDWFERQL [S602] |  |  |  |  | 0.031 |
| Ac-SLEEEWAQIQEDLYGANHNESFYDWFERQL [S603] |  |  |  |  | 0.015 |
| SLEEEWAQIQHELWPVEKGESFYDWFERQL [S605] |  |  |  |  | 0.094 |

Source: patent US20030236190A1 (published 2003)
